Where a chain is given by its changes, count along the chain named. One block for each binder: values may come before it.
Columns and labels:
rabbit PD-L1-Fc = target: T1, rabbit PD-L1-Fc (rabbit, UniProt G1SUI3 19-236); assay: ELISA, PD-L1-Fc coated at 0.5 ug/ml
T1 construct: also called rabbity PD-L1-Fc; not shown: Fc part
T1 sequence: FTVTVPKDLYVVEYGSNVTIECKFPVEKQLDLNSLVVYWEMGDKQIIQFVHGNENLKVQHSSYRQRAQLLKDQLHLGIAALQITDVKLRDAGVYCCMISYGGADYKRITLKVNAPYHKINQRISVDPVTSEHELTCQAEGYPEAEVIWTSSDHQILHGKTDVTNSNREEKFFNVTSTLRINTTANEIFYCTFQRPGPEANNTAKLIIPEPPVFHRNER
Protocol: (§1) ELISA was used to measure the relative affinity of anti-PD-L1 antibodies from different organisms. For the binding assay, ELISA plate wells (medium binding from Greiner bio one) were coated with 50 μl of human, cynomolgus, murine, rat, canine, rabbity PD-L1-Fc, (0.5 μg/ml in 1× carbonate buffer), hermetically sealed and incubated overnight at 4° C. All the subsequent stages were conducted following standard ELISA protocol described above.

[1] = target: T2, cynomolgus monkey PD-L1 (in solution) (cynomolgus monkey, UniProt G7PSE7 19-238); assay: BLI OctetRed 96, BCD-135 on AR2G sensors, PD-L1 in solution at 10 to 1 ug/ml, 30 C, 1:1 model; cynomolgus PD-L1
T2 construct: also called cynomolgus PD-L1 antigen
Protocol: (§2) Constants of the antibody binding affinity to human and cynomolgus PD-L1 were measured with an OctetRed 96 instrument (from ForteBio). […] The assay was carried out at 30 ° C. using PBS containing 0.1% Tween-20 and 0.1% BSA as a reaction buffer. The binding of human and monkey PD-L1 solutions to a sensor-bound antibody was analysed in a work buffer with an antigen concentration of 10 μg/ml to 1 μg/ml.
(§3) The binding curves minus the reference signal were analyzed using Octet Data Analysis (ver 8.2) software according to the standard procedure using the 1:1 interaction model.

FcgRIa = target: T3, FcgRIa (Homo sapiens (Human), UniProt P12314 16-292, C-terminal biotin; the letters of any biotinylation or purification tag are not given); assay: Biolayer interferometry (Octet RED96), biotinylated receptor on streptavidin sensors, antibody in solution, phosphate buffer pH 7.4
T3 construct: Biotinylated receptor held on streptavidin sensors; also called Fcg receptor; Fcγ-receptor

IL17a = target: T4, IL17a (Homo sapiens (Human), UniProt Q16552 24-155); assay: ELISA, antigen coated at 1 µg/ml, BCD-135 titrated 5 to 0.0007 µg/ml, OD 450 nm
T4 construct: Off-target antigen in the specificity ELISA
Protocol: (§4) ELISA was used to measure the relative affinity of anti-PD-L1 antibodies and other antigens. For binding assay, ELISA plate wells (medium binding from Greiner bio one) were coated with 50 μl of PD-L1-Fc, fPCSK9-EPEA, Ang2-H6F, GM-CSF-FE, CD3-ED-Fc, IL17a, CD38-Fc, IL6R-Fc (1 μg/ml in lx carbonate buffer), hermetically sealed and incubated overnight at 4° C. All the subsequent stages were conducted following standard ELISA protocol. To block a non-specific binding, a buffer BB (200 μL of 0.5% skimmed milk in PBS) was added. The plates were incubated on a shaker for an hour at room temperature. […] The plates were again incubated, shaking for one hour at room temperature, followed by washing for three times each plate well with PBS-Twin buffer. Once washed, (50 μL/well) anti-human Fab HRP-conjugated secondary antibodies (from Pierce-ThermoScientific) were added at 1:5000 ratio in PBS-Tween. The plates were shaken on a rotary shaker (50 min, room temperature) and washed for three times with FSB-Twin buffer, as described above. The colourimetric signal was developed by adding TMB (50 μL/well) until saturation (average 3-5 min), then the development was quenched by adding stop solution (30 μL/well, 10% sulphuric acid). Colour signal was measured at a wavelength of 450 nm using a suitable Tecan-Sunrise plate reader (from Tecan).

[2] = target: T5, human PD-L1 (recombinant, in solution) (human, UniProt Q9NZQ7 19-238, limits assumed); assay: BLI OctetRed 96, BCD-135 on AR2G sensors, PD-L1 in solution at 10 to 1 ug/ml, 30 C, 1:1 model; human PD-L1
T5 construct: also called human PD-L1 antigen
Protocol: as §2, §3

human PD-L1-Fc [3] = target: T6, human PD-L1-Fc (human, UniProt Q9NZQ7 19-238, limits assumed); assay: ELISA, antigen coated at 1 µg/ml, BCD-135 titrated 5 to 0.0007 µg/ml, anti-human Fab HRP, OD 450 nm
T6 construct: not shown: Fc part
Protocol: as §4

murine PD-L1-Fc = target: T7, murine PD-L1-Fc (murine, UniProt Q9EP73 19-239, limits assumed); assay: ELISA, PD-L1-Fc coated at 0.5 µg/ml, antibody titrated 5 to 0.0007 µg/ml, OD 450 nm
T7 construct: not shown: Fc part
Protocol: as §1

canine PD-L1-Fc = target: T8, canine PD-L1-Fc (canine, UniProt E2RKZ5 19-236); assay: as above
T8 sequence: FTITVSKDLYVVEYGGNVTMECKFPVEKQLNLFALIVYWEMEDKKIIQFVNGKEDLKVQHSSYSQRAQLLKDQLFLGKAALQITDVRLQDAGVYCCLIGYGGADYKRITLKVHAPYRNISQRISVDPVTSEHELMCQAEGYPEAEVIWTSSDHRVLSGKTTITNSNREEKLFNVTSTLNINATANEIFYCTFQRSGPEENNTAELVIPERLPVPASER
Protocol: as §1

human PD-L1-Fc [4] = target: T6, human PD-L1-Fc; assay: as above
Protocol: as §1

cynomolgus PD-L1-Fc = target: T9, cynomolgus PD-L1-Fc (cynomolgus, UniProt G7PSE7 19-238); assay: as above
T9 construct: not shown: Fc part
Protocol: as §1

rat PD-L1-Fc = rat PD-L1-Fc (rat, UniProt D4AE25 19-239); assay: as above
Protocol: as §1

[5] = target: T5, human PD-L1 (recombinant, in solution); assay: BLI Octet Red 96, Fab from E. coli supernatant on anti-FABCH1 sensors, PD-L1 at 30 ug/mL, 1:1 model
Protocol: Anti-FABCH1-biosensors (SA) were rehydrated for 30 minutes in the reaction buffer containing 10 mM PBS, pH 7.2-7.4, 0.1% Tween-20, 0.1% BSA. The reaction buffer was added into study E. coli supernatant samples to a final concentration of 1×. Then, anti-FABCH1-biosensors were submerged in E. coli supernatants containing Fab fragments of candidate antibodies for 12 hours at 4 ° C. Sensors with surface immobilized Fab fragments were transferred into wells with reaction buffer wherein baseline was recorded (for 60 seconds). Next, sensors were transferred to wells with analyte solution (PD-L1, 30 μg/mL) to associate antigen-antibody complex (300 s). Then, sensors were returned to the wells containing the reaction buffer for the next dissociation step (600 s). After each experiment, used sensors were regenerated by 3-time placing them into the regeneration buffer (Gly-HCl, pH 1.7), thereafter they were used in the next experiment. Obtained curve analysis was carried out using Octet Data Analysis (ver 7.0) software according to the standard procedure using 1:1 interaction model.

T5 sequence (Q9NZQ7 other isoform, or with tags, fused parts or gaps limits assumed): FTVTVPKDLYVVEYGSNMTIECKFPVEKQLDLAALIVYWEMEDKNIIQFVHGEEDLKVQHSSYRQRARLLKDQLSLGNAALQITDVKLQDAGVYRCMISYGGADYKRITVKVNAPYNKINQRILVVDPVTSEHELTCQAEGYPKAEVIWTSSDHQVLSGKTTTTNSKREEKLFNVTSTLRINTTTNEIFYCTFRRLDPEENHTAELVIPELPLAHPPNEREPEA
T6 sequence (Q9NZQ7 19-238 limits assumed): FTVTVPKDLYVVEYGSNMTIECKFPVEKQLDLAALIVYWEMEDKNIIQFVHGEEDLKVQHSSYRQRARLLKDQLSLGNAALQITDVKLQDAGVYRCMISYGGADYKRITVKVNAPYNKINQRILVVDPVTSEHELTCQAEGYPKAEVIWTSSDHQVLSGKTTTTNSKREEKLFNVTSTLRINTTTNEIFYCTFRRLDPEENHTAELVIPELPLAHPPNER
rat PD-L1-Fc, sequence (D4AE25 entry or part of it limits assumed): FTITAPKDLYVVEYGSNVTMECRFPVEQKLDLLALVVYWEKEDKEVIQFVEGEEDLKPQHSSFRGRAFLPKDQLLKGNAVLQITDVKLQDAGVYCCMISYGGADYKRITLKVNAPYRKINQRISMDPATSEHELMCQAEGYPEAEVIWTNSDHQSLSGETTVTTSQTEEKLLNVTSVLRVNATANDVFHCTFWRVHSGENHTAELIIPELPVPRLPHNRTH
T9 sequence (G7PSE7 entry or part of it): as the sequence (Q9NZQ7 19-238 limits assumed) above, with A33T, A34S, S62N, R68Q, Q82R, F173L, T185A, T192I, H215L counted along it
T2 sequence (G7PSE7 entry or part of it): as the sequence (Q9NZQ7 19-238 limits assumed) above, with A33T, A34S, S62N, R68Q, Q82R, F173L, T185A, T192I, H215L counted along it
T3 sequence (P12314 16-292 limits assumed): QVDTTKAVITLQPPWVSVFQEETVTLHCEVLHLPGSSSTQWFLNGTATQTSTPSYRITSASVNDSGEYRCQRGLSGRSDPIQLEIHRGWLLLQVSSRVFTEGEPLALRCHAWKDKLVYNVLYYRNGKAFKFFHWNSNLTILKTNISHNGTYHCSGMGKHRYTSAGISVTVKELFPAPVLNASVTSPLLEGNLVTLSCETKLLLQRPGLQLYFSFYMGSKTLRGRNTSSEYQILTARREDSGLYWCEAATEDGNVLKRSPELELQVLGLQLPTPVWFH
T7 sequence (Q9EP73 19-239 limits assumed): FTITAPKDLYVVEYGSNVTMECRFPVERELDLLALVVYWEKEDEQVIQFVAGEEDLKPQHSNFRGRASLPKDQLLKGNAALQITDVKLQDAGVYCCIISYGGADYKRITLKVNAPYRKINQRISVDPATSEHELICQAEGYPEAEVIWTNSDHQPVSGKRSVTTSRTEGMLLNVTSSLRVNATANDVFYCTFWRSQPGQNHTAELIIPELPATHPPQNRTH
T4 sequence (Q16552 24-155 limits assumed): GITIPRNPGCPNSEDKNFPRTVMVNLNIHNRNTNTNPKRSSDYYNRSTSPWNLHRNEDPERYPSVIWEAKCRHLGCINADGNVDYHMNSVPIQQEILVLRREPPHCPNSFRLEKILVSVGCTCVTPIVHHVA

binding result (rabbit PD-L1-Fc): no binding | Kd [1]: 0.555 nM | binding result (FcgRIa): no binding | binding result (IL17a): no binding (tested: 5 µg/ml) | Kd [2]: < 0.001 nM | EC50 (read off the curve) (human PD-L1-Fc [3]): ~6 ng/mL | binding result (murine PD-L1-Fc): no binding (tested: 5 µg/ml) | binding result (canine PD-L1-Fc): no binding (tested: 5 µg/ml) | EC50 (read off the curve) (human PD-L1-Fc [4]): ~6 ng/mL | EC50 (read off the curve) (cynomolgus PD-L1-Fc): ~5 ng/mL | binding result (rat PD-L1-Fc): no binding (tested: 5 µg/ml)
B1: BCD-135 antibody (antibody, human IgG1, lambda, L234A L235A)
heavy: not shown
light: QTVVTQEPSLSVSPGGTVTLTCGLSSGTVTAINYPGWYQQTPGQAPRTLIYNTNTRHSGVPDRFSGSISGNKAALTITGAQAEDEADYYCALYMGNGGHMFGGGTKLTVLGQPKAAPSVTLFPPSSEELQANKATLVCLISDFYPGAVTVAWKADSSPVKAGVETTTPSKQSNNKYAASSYLSLTPEQWKSHRSYSCQVTHEGSTVEKTVAPTECS
notes: also called anti-PD-L1 antibody; modified IgG1 antibody

Response [5]: 0.0903
B2: wild type BCD-135 Fab antibody (Fab, V domains shown)
VH: EVQLVESGGGVVRPGGSLRLSCAASGFTFDDYAMSWVRQAPGKGLEWVSDISWSGSNTNYADSVKGRFTISRDNAKNSLYLQMNSLRAEDTALYHCARAPLLLAMTFGVGSWGQGTLVTVSS
VL: QTVVTQEPSLSVSPGGTVTLTCGLSSGTVTAINYPGWYQQTPGQAPRTLIYNTNTRHSGVPDRFSGSISGNKAALTITGAQAEDEADYYCALYMGNGGHMFGGGTK
notes: Fab made in E. coli and used as supernatant; also called Wild-BCD-135VH; control wild BCD-135 Fab

Response [5]: 0.0505
B3: 2m-BCD-135VH (Fab, V domains shown)
VH: B2 VH with D30N, R98K, L102P, M105T
VL: B2 VL with M94T, N96T, G98S
notes: Substitutions derived from the printed CDR strings; Fab from E. coli supernatant; also called BCD-135 mutant Fab antibody 2m

Response [5]: 0.0623
B4: 5m-BCD-135VH (Fab, V domains shown)
VH: B2 VH with D30K, D31S, M34I, R98K, L102M, M105A
VL: B2 VL with M94Y, N96T, G98S
notes: Substitutions derived from the printed CDR strings; Fab from E. coli supernatant; also called BCD-135 mutant Fab antibody 5m

Response [5]: 0.0637
B5: 4m-BCD-135VH (Fab, V domains shown)
VH: B2 VH with D30A, D31N, R98K, L102P, M105T
VL: B2 VL with M94V, N96T, G98S
notes: Substitutions derived from the printed CDR strings; Fab from E. coli supernatant; also called BCD-135 mutant Fab antibody 4m

Response [5]: 0.0637
B6: 7m-BCD-135VH (Fab, V domains shown)
VH: B2 VH with D30A, R98K, L102P, L103S, M105I
VL: B2 VL with M94E, N96T, G98S
notes: Substitutions derived from the printed CDR strings; Fab from E. coli supernatant; also called BCD-135 mutant Fab antibody 7m

Response [5]: 0.0945
B7: 6m-BCD-135VH (Fab, V domains shown)
VH: B2 VH with D30S, D31T, R98K, L102V, M105I
VL: B2 VL with M94T, N96T, G98S
notes: Substitutions derived from the printed CDR strings; Fab from E. coli supernatant; also called BCD-135 mutant Fab antibody 6m

Response [5]: 0.0971
B8: 1m-BCD-135VH (Fab, V domains shown)
VH: B2 VH with D30A, D31N, R98K, M105T
VL: B2 VL with M94V, N96T, G98S
notes: Fab from E. coli supernatant; also called BCD-135 mutant Fab antibody 1m

Reference: US20200369771A1 (JOINT STOCK COMPANY BIOCAD, published 2020)
